Measured values taken from patent US20150344570A1 (published 2015).

T1: FcγRIIb (human, UniProt P31994 43-217)
T1 construct: extracellular domain; also called FcgRIIb; 2b
T1 sequence (looked up): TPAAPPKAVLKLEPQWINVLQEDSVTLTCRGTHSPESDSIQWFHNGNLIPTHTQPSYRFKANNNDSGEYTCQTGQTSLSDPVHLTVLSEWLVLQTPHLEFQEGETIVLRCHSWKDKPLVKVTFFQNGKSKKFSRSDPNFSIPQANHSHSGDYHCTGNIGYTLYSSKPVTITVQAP

T2: FcγRIIa H (human, UniProt P12318 34-217)
T2 construct: extracellular domain; also called FcγRIIa type H; 2aH
T2 sequence (looked up): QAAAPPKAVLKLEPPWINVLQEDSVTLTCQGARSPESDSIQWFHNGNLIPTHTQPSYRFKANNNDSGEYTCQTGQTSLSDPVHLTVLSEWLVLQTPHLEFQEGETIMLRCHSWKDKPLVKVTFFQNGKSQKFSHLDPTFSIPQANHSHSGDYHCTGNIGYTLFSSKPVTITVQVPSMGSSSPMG

T3: FcγRIIb (human, UniProt P31994 43-217)
T3 construct: extracellular domain; also called 2b; FcgRIIb
T3 sequence (looked up): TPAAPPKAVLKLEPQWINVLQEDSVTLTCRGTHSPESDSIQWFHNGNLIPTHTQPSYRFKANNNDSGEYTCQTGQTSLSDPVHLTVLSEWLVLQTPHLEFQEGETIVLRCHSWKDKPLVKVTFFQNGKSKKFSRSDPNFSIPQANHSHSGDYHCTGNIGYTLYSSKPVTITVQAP


Assays:
[1] = biological target: T1, FcγRIIb; experiment: SPR (Biacore), captured antibody, FcγR as analyte; relative binding, control GpH7-A5/GpH7-B3/GpL16-k0 = 100
Method: (§1) The heterodimerized antibodies He Abs in which one of the H chains was introduced with an alteration were assayed for their binding activities to each activating FcγR and inhibitory FcγR according to the method described in Example 4. […] The activating FcγRs in FIGS. 26, 27, 28, and 29 are FcγRIa, FcγRIIa (R), FcγRIIa (H), and FcγRIIIa, respectively.
(§2) Analysis of interaction between objective antibody and the FcγR was carried out using Biacore T100 (GE Healthcare). HBS-EP+ (GE Healthcare) was used as the running buffer, and the measurement temperature was set to 25° C. Chips produced by immobilizing the antigen peptide by the amine coupling method to a Series S Sencor Chip CM5 (GE Healthcare), or alternatively, chips produced by allowing preliminarily biotinylated antigen peptides to interact with and immobilize onto a Series S Sensor Chip SA (certified) (GE Healthcare) were used. Antibodies of interest were captured onto an antigen peptide-immobilized chip, and allowed to interact to each FcγR diluted with running buffer. To regenerate and repeatedly use the chip, the antibodies captured on the chip were washed off by reacting 10 mM glycine-HCl, pH 1.5.

[2] = biological target: T2, FcγRIIa H; experiment: ratio of He/Con_2aH to He/Con_2b (FcγRIIb); SPR
[3] = biological target: T3, FcγRIIb; experiment: SPR (Biacore), captured antibody, FcγR as analyte; GpH7-A5/GpH7-B3/GpL16-k0 = 100
Method: as §1, §2

[4] = biological target: T2, FcγRIIa H; experiment: as above
Method: as §1, §2

Row | He/Con_2b [1] | He_2aH/2b (IIaH/IIb ratio) [2] | He/Con_2b (relative binding) [3] | He/Con_2aH (relative binding) [4] | Binder
1 | 0.6 control = 100 |  |  |  | GpH7-A5/GpH7-B3 variant D265_15Y/GpL16-k0 (antibody, human IgG1, kappa, heterodimerized anti-glypican-3 IgG1; alteration in one H chain only; also called He Ab) heavy 1: not shown heavy 2: not shown light: DIVMTQSPLSLPVTPGEPASISCQASESLVHSNRNTYLHWYLQKPGQSPQLLIYKVSNRFSGVPDRFSGSGSGTDFTLKISRVEAEDVGVYYCSQNTHVPPTFGQGTKVEIERTVAAPSVFIFPPSDEQLKSGTASVVCLLNNFYPREAKVQWKVDNALQSGNSQESVTEQDSKDSTYSLSSTLTLSKADYEKHKVYACEVTHQGLSSPVTKSFNRGEC
2 |  | 2.17 | 20.3% | 44% | GpH7-A5/GpH7-B3 variant D270_11K/GpL16-k0 (antibody, human IgG1, kappa, Heterodimerized anti-glypican-3 IgG1 (He Ab); mutation in the B3 H chain only; also called He Ab) heavy 1: not shown heavy 2: not shown light: DIVMTQSPLSLPVTPGEPASISCQASESLVHSNRNTYLHWYLQKPGQSPQLLIYKVSNRFSGVPDRFSGSGSGTDFTLKISRVEAEDVGVYYCSQNTHVPPTFGQGTKVEIERTVAAPSVFIFPPSDEQLKSGTASVVCLLNNFYPREAKVQWKVDNALQSGNSQESVTEQDSKDSTYSLSSTLTLSKADYEKHKVYACEVTHQGLSSPVTKSFNRGEC
3 | 1.1 control = 100 |  |  |  | GpH7-A5/GpH7-B3 variant D265_20W/GpL16-k0 (antibody, human IgG1, kappa, heterodimerized anti-glypican-3 IgG1; alteration in one H chain only; also called He Ab) heavy 1: not shown heavy 2: not shown light: DIVMTQSPLSLPVTPGEPASISCQASESLVHSNRNTYLHWYLQKPGQSPQLLIYKVSNRFSGVPDRFSGSGSGTDFTLKISRVEAEDVGVYYCSQNTHVPPTFGQGTKVEIERTVAAPSVFIFPPSDEQLKSGTASVVCLLNNFYPREAKVQWKVDNALQSGNSQESVTEQDSKDSTYSLSSTLTLSKADYEKHKVYACEVTHQGLSSPVTKSFNRGEC
4 |  | 1.34 | 76.5% | 102% | GpH7-A5/GpH7-B3 variant D270_10E/GpL16-k0 (antibody, human IgG1, kappa, Heterodimerized anti-glypican-3 IgG1 (He Ab); mutation in the B3 H chain only; also called He Ab) heavy 1: not shown heavy 2: not shown light: DIVMTQSPLSLPVTPGEPASISCQASESLVHSNRNTYLHWYLQKPGQSPQLLIYKVSNRFSGVPDRFSGSGSGTDFTLKISRVEAEDVGVYYCSQNTHVPPTFGQGTKVEIERTVAAPSVFIFPPSDEQLKSGTASVVCLLNNFYPREAKVQWKVDNALQSGNSQESVTEQDSKDSTYSLSSTLTLSKADYEKHKVYACEVTHQGLSSPVTKSFNRGEC

The remaining lines, values behind:

Row | Binder | He/Con_2b [1] | He_2aH/2b (IIaH/IIb ratio) [2] | He/Con_2b (relative binding) [3] | He/Con_2aH (relative binding) [4]
5 | GpH7-A5/GpH7-B3 variant D270_01G/GpL16-k0 (antibody, human IgG1, kappa, Heterodimerized anti-glypican-3 IgG1 (He Ab); mutation in the B3 H chain only; also called He Ab) heavy 1: not shown heavy 2: not shown light: DIVMTQSPLSLPVTPGEPASISCQASESLVHSNRNTYLHWYLQKPGQSPQLLIYKVSNRFSGVPDRFSGSGSGTDFTLKISRVEAEDVGVYYCSQNTHVPPTFGQGTKVEIERTVAAPSVFIFPPSDEQLKSGTASVVCLLNNFYPREAKVQWKVDNALQSGNSQESVTEQDSKDSTYSLSSTLTLSKADYEKHKVYACEVTHQGLSSPVTKSFNRGEC |  | 1.72 | 30.5% | 52.5%
6 | GpH7-A5/GpH7-B3 variant V266_12R/GpL16-k0 (antibody, human IgG1, kappa, heterodimerized anti-glypican-3 IgG1; alteration in one H chain only; also called He Ab) heavy 1: not shown heavy 2: not shown light: DIVMTQSPLSLPVTPGEPASISCQASESLVHSNRNTYLHWYLQKPGQSPQLLIYKVSNRFSGVPDRFSGSGSGTDFTLKISRVEAEDVGVYYCSQNTHVPPTFGQGTKVEIERTVAAPSVFIFPPSDEQLKSGTASVVCLLNNFYPREAKVQWKVDNALQSGNSQESVTEQDSKDSTYSLSSTLTLSKADYEKHKVYACEVTHQGLSSPVTKSFNRGEC | -1.1 control = 100 |  |  | 
7 | GpH7-A5/GpH7-B3 variant D270_08L/GpL16-k0 (antibody, human IgG1, kappa, Heterodimerized anti-glypican-3 IgG1 (He Ab); mutation in the B3 H chain only; also called He Ab) heavy 1: not shown heavy 2: not shown light: DIVMTQSPLSLPVTPGEPASISCQASESLVHSNRNTYLHWYLQKPGQSPQLLIYKVSNRFSGVPDRFSGSGSGTDFTLKISRVEAEDVGVYYCSQNTHVPPTFGQGTKVEIERTVAAPSVFIFPPSDEQLKSGTASVVCLLNNFYPREAKVQWKVDNALQSGNSQESVTEQDSKDSTYSLSSTLTLSKADYEKHKVYACEVTHQGLSSPVTKSFNRGEC |  | 1.41 | 53.6% | 75.8%
8 | GpH7-A5/GpH7-B3 variant D270_13S/GpL16-k0 (antibody, human IgG1, kappa, Heterodimerized anti-glypican-3 IgG1 (He Ab); mutation in the B3 H chain only; also called He Ab) heavy 1: not shown heavy 2: not shown light: DIVMTQSPLSLPVTPGEPASISCQASESLVHSNRNTYLHWYLQKPGQSPQLLIYKVSNRFSGVPDRFSGSGSGTDFTLKISRVEAEDVGVYYCSQNTHVPPTFGQGTKVEIERTVAAPSVFIFPPSDEQLKSGTASVVCLLNNFYPREAKVQWKVDNALQSGNSQESVTEQDSKDSTYSLSSTLTLSKADYEKHKVYACEVTHQGLSSPVTKSFNRGEC |  | 1.61 | 44.2% | 71.2%
